Laboratory results taken from publication PMC9549855.

Molecular target: T1, nucleocapsid protein (N) (vesicular stomatitis virus), P03521
T1 chain: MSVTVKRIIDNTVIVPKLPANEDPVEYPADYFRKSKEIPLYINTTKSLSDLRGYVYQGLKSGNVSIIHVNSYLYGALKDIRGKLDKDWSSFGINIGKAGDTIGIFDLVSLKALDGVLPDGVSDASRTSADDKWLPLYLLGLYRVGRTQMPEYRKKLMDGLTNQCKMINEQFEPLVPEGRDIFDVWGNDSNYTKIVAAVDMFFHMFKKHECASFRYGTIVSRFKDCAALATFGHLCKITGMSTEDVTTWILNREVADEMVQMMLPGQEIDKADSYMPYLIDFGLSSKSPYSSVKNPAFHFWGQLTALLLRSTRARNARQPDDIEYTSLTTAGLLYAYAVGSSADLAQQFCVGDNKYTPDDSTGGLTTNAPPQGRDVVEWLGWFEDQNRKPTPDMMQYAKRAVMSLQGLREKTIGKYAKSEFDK
Experiment: cryo-EM structure
Conditions: remark: other sources report otherwise

B1: matrix protein (M), P03519 1-229 (natural protein)
chain: MSSLKKILGLKGKGKKSKKLGIAPPPYEEDTSMEYAPSAPIDKSYFGVDEMDTYDPNQLRYEKFFFTVKMTVRSNRPFRTYSDVAAAVSHWDHMYIGMAGKRPFYKILAFLGSSNLKATPAVLADQGQPEYHTHCEGRAYLPHRMGKTPPMLNVPEHFRRPFNIGLYKGTIELTMTIYDDESLEAAPMIWDHFNSSKFSDFREKALMFGLIVEKKASGAWVLDSISHFK
stoichiometry N: 2
